Measurements: article PMC4132745

System: HMO1 (Saccharomyces cerevisiae)
Assay: optical tweezers (DNA stretching)
Details: Assay buffer, salt, pH and temperature not given in the material (protein stored in 20 mM HEPES pH 7.5, 100 mM KCl, 1 mM EDTA, 1 mM DTT, 5% glycerol)

Substance: bacteriophage lambda DNA
- Kd (from contour length, omega = 18 +/- 5, n = 26 bp): 1.9 nM
- Kd (from overstretching force, omega = 80 +/- 15, n = 26 bp): 2.8 nM
- Kd (from persistence length, omega = 20 +/- 7, n = 26 bp): 2.1 nM
